Test results reported in patent US20230257444A1, “FUSION PROTEIN AND COMBINATIONS THEREOF” (Agency for Science, Technology and Research, priority 2020, published 2023).
Like-named read-outs stand apart in the source and are kept apart here.

Columns and labels:
[1] = set-up: species or system Balb/c mice; conditions: mouse, in vivo, ip
Procedure: 9 week old female Balb/c mice (InVivos, Singapore) were injected intraperitoneally with 0.5, 1, 2 or 4 mg hDectin1-Fc in groups of 3. Blood was sampled from the tail at time 0, 5, 10, 15, 30 mins and 1, 2, 4, 8 hours thereafter followed by daily sampling with Microvette® ([…], Nümbrecht, Germany) for 20 days. The respective blood samples were allowed to clot and centrifuged at 2000 g and the blood serum collected. The blood serum was diluted accordingly and the concentration of hDectin1-Fc was tested with Human IgG ELISA Antibody Pair Kit and developed with pNPP ELISA Substrate ([…] Technologies, Vancouver, Canada). The plates were read on PLATE reader and the data analysed for hDectin1-Fc pharmacokinetic parameters with open source Microsoft Excel add-in PKSolver (China Pharmaceutical University, Nanjing, China).
The pharmacokinetic parameters of hDectin1-Fc at different doses (4 mg, 2 mg, 1 mg and 0.5 mg) were determined by administering a single bolus intraperitoneal injection and sampling blood serum daily (FIG. 14). The daily concentration over 20 days was measured by ELISA and the results analysed with PKSolver to determine the pharmacokinetic parameters (Table 2). […] The lowest dose of 0.5 mg has a half-life and MRT lower than the 2 mg and 1 mg dose and its peak concentration (Cmax) is at 10 hours instead of 2 hours like the other doses. This observed outcome for the 0.5 mg dose is likely to arise from the slow transfer of hDectin1-Fc from the intraperitoneal space of the mouse into its bloodstream due to the lower concentration gradient and stronger role of excretion over distribution. The duration of the MRT and the half-life is a reflection of the presence of the protective effects of hDectin1-Fc in the body of the mice. The optimal dose with the longest MRT and half-life is approximately 1 mg. The general take away from the pharmacokinetic study are: (i) high doses result in rapid excretion of the drug, (ii) peak concentration occurs at 2 hours (iii) lower doses have a longer half-life and mean residence time appropriate for passive immunization.

SC5314 Candida albicans [2] = test: In vitro combination therapy checkerboard dilution assay (Amphotericin B & hDectin1-Fc) with human primary macrophages; format: cell-based; conditions: between 0 μg/ml and 100 µg/ml hDectin1-Fc, 24 hours
Procedure: Human peripheral blood CD14+ monocytes were cultured at 1×10^6 cells/mL in 5 mL of ImmunoCult™-SF Macrophage Differentiation Medium with Human Recombinant M-CSF at 50 ng/ml in a T-25 flask at 37° C. in a 5% CO2 incubator. On Day 4, 2.5 mL of fresh ImmunoCult™-SF Macrophage Differentiation Medium was added to the flask. On Day 6, M1 activation was initiated with the addition of 50 ng/mL IFN-γ. On Day 8, the macrophages were treated with ACCUTASE and scrapped from the flask. The cells were centrifuged and resuspended in RPMI medium with 10% FBS and seeded into 96 well plates at 10^5 cells/well. The co-culture assay involves the addition of 10^5 cells/well of SC5314 Candida albicans cells to wells containing 10^5 cells/well of human primary macrophages cells with final concentration of hDectin1-Fc at 0, 1, 10 or 100 g/ml and varying concentration of Amphotericin B in a checkerboard dilution assay format in a 96 well plate. The assay was incubated for 24 hr at 37° C. in a 5% CO2 atmosphere incubator and the MIC and MFC determined visual using a Nikon Eclipse Ti-E inverted microscope.
10′ Candida albicans cells and 10′ human primary macropahges were seeded per well in a checkerboard dilution assay of Amphotericin B with the respective concentration of hDectin1-Fc (0, 10, 100 μg/ml) and incubated for 24 hours at 37° C.

SC5314 Candida albicans [3] = test: In vitro co-culture CFU assay of human primary immune cells against Candida albicans; format: cell-based; conditions: 1 hr; for fungicidal activity (CFU): absence or presence of hDectin1-Fc; for reduction in CFU: between hDectin1-Fc 0 μg/ml and 1000 µg/ml, 37° C.
Procedure: Macrophage assay: Human peripheral blood CD14+ monocytes were cultured at 1×10^6 cells/mL in 5 mL of ImmunoCult™-SF Macrophage Differentiation Medium with Human Recombinant M-CSF at 50 ng/ml in a T-25 flask at 37° C. in a 5% CO2 incubator. On Day 4, 2.5 mL of fresh ImmunoCult™-SF Macrophage Differentiation Medium was added to the flask. On Day 6, M1 activation was initiated with the addition of 50 ng/mL IFN-γ. On Day 8, the macrophages were treated with ACCUTASE and scrapped from the flask. The cells were centrifuged and resuspended in RPMI medium with 10% FBS and seeded into Eppendorf 96 well plates at 10^5 cells/well.
NK cell assay: Human Peripheral Blood CD56+NK Cells 1×10^6 cells/mL in 5 mL of ImmunoCult™-XF T Cell Expansion Medium with Human Recombinant IL-2 at 500 IU/ml in a T-25 flask at 37° C. in a 5% CO2 incubator for 7 days. Additional fresh media was added on day 4. The cells were centrifuged and resuspended in RPMI medium with 10% FBS and seeded into Eppendorf 96 well plates at 10^5 cells/well.
Monocyte assay: Human peripheral blood CD14+ Monocytes were cultured at 1×10^6 cells/mL in 5 mL of ImmunoCult™-SF Macrophage Differentiation Medium with Human Recombinant M-CSF at 10 ng/ml in a T-25 flask at 37° C. in a 5% CO2 incubator for 4 days. The cells were centrifuged and resuspended in RPMI medium with 10% FBS and seeded into Eppendorf 96 well plates at 10^5 cells/well.
Neutrophil assay: Human peripheral neutrophils were extracted from Human […] using EasySep™ Direct Human Neutrophil Isolation Kit as per manufacturer's protocol. The isolated neutrophils were centrifuged and resuspended in RPMI medium with 10% FBS and G-CSF and seeded into Eppendorf 96 well plates at 10^5 cells/well.
The co-culture CFU assay involves the addition of 10^5 cells/well of SC5314 Candida albicans cells to wells containing 10^5 cells/well of primary immune cells with final concentration of hDectin1-Fc at […] in a 96 well plate. The assay was incubated for 1 hr at 37° C. in a 5% CO2 atmosphere incubator. Samples were taken from each well at the end of the incubation and diluted accordingly before plating on YPD agar plates. The colonies were counted the following day. Each assay was done thrice and the average taken.
To evaluate the capability of the hDectin1-Fc fusion protein in enhancing immune cell anti-candida function, 10^5 human primary immune cells were co-cultured with 10^5 Candida albicans in a 1 hr long assay incubated at 37° C. with varying concentrations of hDectin1-Fc from […]. The surviving Candida cells were diluted and plated and the colony forming units (CFU) used as a measure of fungicidal activity (FIG. 12). […]

With “hDectin1-Fc: soluble dimeric fusion protein: human Dectin-1 receptor polypeptide (aa 73-247) fused to human IgG1 Fc via hinge; SEQ ID NO: 5” the Cl/F ([1]; 0.5 mg) was 0.0066 (μg)/(μg/ml)/h, the Cmax ([1]; 0.5 mg) was 330 µg/mL and the Tmax ([1]; 0.5 mg) was 10 h. For the same substance, the Vz/F ([1]; 0.5 mg) was 0.9495 (μg)/(μg/ml), the t½ ([1]; 0.5 mg) was 100 h and the Cl/F ([1]; 1 mg) was 0.0163 (μg)/(μg/ml)/h. For the same substance, the Cmax ([1]; 1 mg) was 294 µg/mL, the Tmax ([1]; 1 mg) was 2 h and the Vz/F ([1]; 1 mg) was 3.4254 (μg)/(μg/ml). For the same substance, the t½ ([1]; 1 mg) was 146 h, the Cl/F ([1]; 2 mg) was 0.0095 (μg)/(μg/ml)/h and the Cmax ([1]; 2 mg) was 1039 µg/mL. For the same substance, the Tmax ([1]; 2 mg) was 2 h, the Vz/F ([1]; 2 mg) was 2.1489 (μg)/(μg/ml) and the t½ ([1]; 2 mg) was 156 h. The Cl/F ([1]; 4 mg) was 0.0314 (μg)/(μg/ml)/h, the Tmax ([1]; 4 mg) was 2 h and the Vz/F ([1]; 4 mg) was 3.5008 (μg)/(μg/ml). The t½ ([1]; 4 mg) was 77 h, the “reduction in MFC of Amphotericin B” value (SC5314 Candida albicans [2]) was roughly 45% and the “fungicidal activity (CFU)” value (SC5314 Candida albicans [3]; human NK cells) was “did not demonstrate any appreciable fungicidal activity”. For the same substance, the “fungicidal activity (CFU)” value (SC5314 Candida albicans [3]; human monocytes) was “did not demonstrate any appreciable fungicidal activity”, the “reduction in CFU” value (SC5314 Candida albicans [3]; human primary macrophages) was roughly 50% and the “reduction in CFU” value (SC5314 Candida albicans [3]; human primary neutrophils) was roughly 50%.
